Experiments:
Assay in all cases: PDX ALL cells co-cultured on hTERT MSCs, ASNase x ibrutinib dilution matrix, microscopy
Assay type in all cases: cell-based, human
PDX m1095 = details: m1095 (3 d), ibrutinib B0=0 to B9=100
Method: (§1) After 2-4 months these mice developed full blown leukemia with an immunophenotype and genetic composition that in the large majority of cases is identical to the original material at the time of injection.
(§2) Briefly, hTERT immortalized MSCs were seeded in either a 384 wells format (microscopy) or a 96 wells format (7AAD staining) and allowed to settle for 24 hours prior to the addition of ALL xenografts. […] After 3 and 7 days of incubation, cell death was analyzed using microscopy using live cells staining or flowcytometry using 7AAD to discriminate between live or dead cells.

PDX m1338 = details: m1338 (7 d), ibrutinib B0=0 to B9=100
Method: as §1, §2

PDX m1600 = details: m1600 (3 d), ibrutinib B0=0 to B9=100
Method: as §1, §2

PDX m1717 = details: m1717 (3 d), ibrutinib B0=0 to B9=100
Method: as §1, §2

PDX m3657 = details: m3657 (7 d), ibrutinib B0=0 to B9=100
Method: as §1, §2

PDX m3810 = details: ibrutinib B0=0 to B9=100
Method: as §1, §2

B1: ASNase: native E. coli ASNase (NCBI WP_000394140.1), used in the in vitro studies (protein, UniProt P00805 23-348, looked up)
L-asparaginase 2: LPNITILATGGTIAGGGDSATKSNYTVGKVGVENLVNAVPQLKDIANVKGEQVVNIGSQDMNDNVWLTLAKKINTDCDKTDGFVITHGTDTMEETAYFLDLTVKCDKPVVMVGAMRPSTSMSADGPFNLYNAVVTAADKASANRGVLVVMNDTVLDGRDVTKTNTTDVATFKSVNYGPLGYIHNGKIDYQRTPARKHTSDTPFDVSKLNELPKVGIVYNYANASDLPAKALVDAGYDGIVSAGVGNGNLYKSVFDTLATAAKTGTAVVRSSRVPTGATTQDAEVDDAKYGFVASGTLNPQKARVLLQLALTQTKDPQQIQQIFNQY
PDX m1095; ASNase A1=0.01
  live cells by automated microscopy (table names no quantity): 2935
PDX m1095; ASNase A2=0.03
  live cells by automated microscopy (table names no quantity): 2914
PDX m1095; ASNase A3=0.1
  live cells by automated microscopy (table names no quantity): 3089
PDX m1095; ASNase A4=0.3
  live cells by automated microscopy (table names no quantity): 3205
PDX m1095; ASNase A5=1
  live cells by automated microscopy (table names no quantity): 2579
PDX m1095; ASNase A6=3
  live cells by automated microscopy (table names no quantity): 549
PDX m1095; ASNase A7=10
  live cells by automated microscopy (table names no quantity): 2033
PDX m1095; ASNase A8=32
  live cells by automated microscopy (table names no quantity): 238
PDX m1095; ASNase A9 (A=100)
  live cells by automated microscopy (table names no quantity): 30
PDX m1338; ASNase A1=0.01
  live cells by automated microscopy (table names no quantity): 2207
PDX m1338; ASNase A2=0.03
  live cells by automated microscopy (table names no quantity): 3174
PDX m1338; ASNase A3=0.1
  live cells by automated microscopy (table names no quantity): 2916
PDX m1338; ASNase A4=0.3
  live cells by automated microscopy (table names no quantity): 2372
PDX m1338; ASNase A5=1
  live cells by automated microscopy (table names no quantity): 2788
PDX m1338; ASNase A6=3
  live cells by automated microscopy (table names no quantity): 2166
PDX m1338; ASNase A7=10
  live cells by automated microscopy (table names no quantity): 1468
PDX m1338; ASNase A8=32
  live cells by automated microscopy (table names no quantity): 292
PDX m1338; ASNase A9 (A=100)
  live cells by automated microscopy (table names no quantity): 1
PDX m1600; ASNase A1=0.01
  live cells by automated microscopy (table names no quantity): 4146
PDX m1600; ASNase A2=0.03
  live cells by automated microscopy (table names no quantity): 4603
PDX m1600; ASNase A3=0.1
  live cells by automated microscopy (table names no quantity): 3714
PDX m1600; ASNase A4=0.3
  live cells by automated microscopy (table names no quantity): 3134
PDX m1600; ASNase A5=1
  live cells by automated microscopy (table names no quantity): 4045
PDX m1600; ASNase A6=3
  live cells by automated microscopy (table names no quantity): 4366
PDX m1600; ASNase A7=10
  live cells by automated microscopy (table names no quantity): 3730
PDX m1600; ASNase A8=32
  live cells by automated microscopy (table names no quantity): 487
PDX m1600; ASNase A9 (A=100)
  live cells by automated microscopy (table names no quantity): 4
PDX m1717; ASNase A1=0.01
  live cells by automated microscopy (table names no quantity): 5977
PDX m1717; ASNase A2=0.03
  live cells by automated microscopy (table names no quantity): 6674
PDX m1717; ASNase A3=0.1
  live cells by automated microscopy (table names no quantity): 5155
PDX m1717; ASNase A4=0.3
  live cells by automated microscopy (table names no quantity): 6700
PDX m1717; ASNase A5=1
  live cells by automated microscopy (table names no quantity): 6589
PDX m1717; ASNase A6=3
  live cells by automated microscopy (table names no quantity): 5782
PDX m1717; ASNase A7=10
  live cells by automated microscopy (table names no quantity): 3762
PDX m1717; ASNase A8=32
  live cells by automated microscopy (table names no quantity): 571
PDX m1717; ASNase A9 (A=100)
  live cells by automated microscopy (table names no quantity): 24
PDX m3657; ASNase A1=0.01
  live cells by automated microscopy (table names no quantity): 3562
PDX m3657; ASNase A2=0.03
  live cells by automated microscopy (table names no quantity): 4473
PDX m3657; ASNase A3=0.1
  live cells by automated microscopy (table names no quantity): 4173
PDX m3657; ASNase A4=0.3
  live cells by automated microscopy (table names no quantity): 1159
PDX m3657; ASNase A5=1
  live cells by automated microscopy (table names no quantity): 3935
PDX m3657; ASNase A6=3
  live cells by automated microscopy (table names no quantity): 3317
PDX m3657; ASNase A7=10
  live cells by automated microscopy (table names no quantity): 4220
PDX m3657; ASNase A8=32
  live cells by automated microscopy (table names no quantity): 723
PDX m3657; ASNase A9 (A=100)
  live cells by automated microscopy (table names no quantity): 17
PDX m3810; m3810 (3 d), ASNase A1=0.01
  live cells by automated microscopy (table names no quantity): 1232
PDX m3810; m3810 (3 d), ASNase A2=0.03
  live cells by automated microscopy (table names no quantity): 2209
PDX m3810; m3810 (3 d), ASNase A3=0.1
  live cells by automated microscopy (table names no quantity): 1405
PDX m3810; m3810 (3 d), ASNase A4=0.3
  live cells by automated microscopy (table names no quantity): 1982
PDX m3810; m3810 (3 d), ASNase A5=1
  live cells by automated microscopy (table names no quantity): 1472
PDX m3810; m3810 (3 d), ASNase A6=3
  live cells by automated microscopy (table names no quantity): 1497
PDX m3810; m3810 (3 d), ASNase A7=10
  live cells by automated microscopy (table names no quantity): 1054
PDX m3810; m3810 (3 d), ASNase A8=32
  live cells by automated microscopy (table names no quantity): 268
PDX m3810; m3810 (3 d), ASNase A9 (A=100)
  live cells by automated microscopy (table names no quantity): 8
PDX m3810; m3810 (7 d), ASNase A1=0.01
  live cells by automated microscopy (table names no quantity): 1776
PDX m3810; m3810 (7 d), ASNase A2=0.03
  live cells by automated microscopy (table names no quantity): 1752
PDX m3810; m3810 (7 d), ASNase A3=0.1
  live cells by automated microscopy (table names no quantity): 1563
PDX m3810; m3810 (7 d), ASNase A4=0.3
  live cells by automated microscopy (table names no quantity): 1519
